In paper PMC11969024 (2025):

B1: peptide HD2 (from tick evasin EVA4) / CCL11 (biotinylated, synthetic) (parent complex)
chain 1: EEDDYTAYAPLTCYFT
chain 2: not shown

Variants of: B1

Question: For chain 1 T6E, which enrichment is on record?
Answer: 3.27 log2 (difference from the parental peptide)

Question: How did the enrichment turn out when chain 1 T6D was run?
Answer: 3.92 log2 (difference from the parental peptide)

Question: chain 1 T16Y was tested. Which enrichment did it give?
Answer: -0.239 log2 (difference from the parental peptide)

Question: chain 1 F15G was tested. Which enrichment did it give?
Answer: -2.42 log2 (difference from the parental peptide)

Question: Which enrichment does the source give for chain 1 D4R here?
Answer: -6.08 log2 (difference from the parental peptide)

Question: Which enrichment does the source give for chain 1 F15S here?
Answer: 0.275 log2 (difference from the parental peptide)

Question: How did the enrichment turn out when chain 1 P10Q was run?
Answer: -3.8 log2 (difference from the parental peptide)

Question: Which enrichment does the source give for chain 1 A9G here?
Answer: -4.51 log2 (difference from the parental peptide)

Question: chain 1 A7G was tested. Which enrichment did it give?
Answer: -1.16 log2 (difference from the parental peptide)

Question: With chain 1 A9L as the variant, how does the enrichment read?
Answer: -7.13 log2 (difference from the parental peptide)

Question: For chain 1 D4N, which enrichment is on record?
Answer: -2.87 log2 (difference from the parental peptide)

Question: Which enrichment does the source give for chain 1 D4E here?
Answer: -0.216 log2 (difference from the parental peptide)

Question: chain 1 T16R was tested. Which enrichment did it give?
Answer: -1.09 log2 (difference from the parental peptide)

Question: With chain 1 D4Q as the variant, how does the enrichment read?
Answer: -3.06 log2 (difference from the parental peptide)

Question: For chain 1 A9K, which enrichment is on record?
Answer: -4.4 log2 (difference from the parental peptide)

Question: Which enrichment does the source give for chain 1 Y14E here?
Answer: -7.34 log2 (difference from the parental peptide)

Question: Which enrichment does the source give for chain 1 E1A here?
Answer: -0.354 log2 (difference from the parental peptide)

Question: With chain 1 D3P as the variant, how does the enrichment read?
Answer: -3.5 log2 (difference from the parental peptide)

Question: Which enrichment does the source give for chain 1 Y8L here?
Answer: -9.35 log2 (difference from the parental peptide)

Question: Which enrichment does the source give for chain 1 T6Q here?
Answer: 0.834 log2 (difference from the parental peptide)

Question: chain 1 D3N was tested. Which enrichment did it give?
Answer: -2.05 log2 (difference from the parental peptide)

Question: Which enrichment does the source give for chain 1 T6A here?
Answer: 1.96 log2 (difference from the parental peptide)

Question: For chain 1 E1K, which enrichment is on record?
Answer: -2.4 log2 (difference from the parental peptide)

Question: For chain 1 T12H, which enrichment is on record?
Answer: -1.8 log2 (difference from the parental peptide)

Question: Which enrichment does the source give for chain 1 Y8M here?
Answer: -6.75 log2 (difference from the parental peptide)

Question: chain 1 E1P was tested. Which enrichment did it give?
Answer: -1 log2 (difference from the parental peptide)

Question: With chain 1 T12Y as the variant, how does the enrichment read?
Answer: -1.75 log2 (difference from the parental peptide)

Question: How did the enrichment turn out when chain 1 Y8F was run?
Answer: 1.62 log2 (difference from the parental peptide)

Question: For chain 1 T6K, which enrichment is on record?
Answer: -1.28 log2 (difference from the parental peptide)

Question: With chain 1 L11D as the variant, how does the enrichment read?
Answer: -6.85 log2 (difference from the parental peptide)

Question: With chain 1 D3H as the variant, how does the enrichment read?
Answer: -2.18 log2 (difference from the parental peptide)

Question: chain 1 Y5T was tested. Which enrichment did it give?
Answer: -4.78 log2 (difference from the parental peptide)

Question: How did the enrichment turn out when chain 1 L11P was run?
Answer: -8.67 log2 (difference from the parental peptide)

Question: chain 1 E1H was tested. Which enrichment did it give?
Answer: -1.51 log2 (difference from the parental peptide)

Question: For chain 1 D4M, which enrichment is on record?
Answer: -3.45 log2 (difference from the parental peptide)

Question: How did the enrichment turn out when chain 1 T12M was run?
Answer: -1.76 log2 (difference from the parental peptide)

Question: Which enrichment does the source give for chain 1 T16M here?
Answer: 0.752 log2 (difference from the parental peptide)

Question: Which enrichment does the source give for chain 1 F15P here?
Answer: -0.525 log2 (difference from the parental peptide)

Question: How did the enrichment turn out when chain 1 T6F was run?
Answer: -4.68 log2 (difference from the parental peptide)

Question: For chain 1 L11H, which enrichment is on record?
Answer: 0.483 log2 (difference from the parental peptide)

Question: chain 1 E2P was tested. Which enrichment did it give?
Answer: -2.92 log2 (difference from the parental peptide)

Question: Which enrichment does the source give for chain 1 Y5V here?
Answer: -5.26 log2 (difference from the parental peptide)

Question: How did the enrichment turn out when chain 1 L11C was run?
Answer: 1.22 log2 (difference from the parental peptide)

Question: Which enrichment does the source give for chain 1 F15Y here?
Answer: 0.26 log2 (difference from the parental peptide)

Question: chain 1 Y5W was tested. Which enrichment did it give?
Answer: 1.88 log2 (difference from the parental peptide)

Question: How did the enrichment turn out when chain 1 D3E was run?
Answer: 1.42 log2 (difference from the parental peptide)

Question: Which enrichment does the source give for chain 1 L11M here?
Answer: 2.06 log2 (difference from the parental peptide)

Question: Which enrichment does the source give for chain 1 Y14Q here?
Answer: -4.82 log2 (difference from the parental peptide)

Question: chain 1 T16V was tested. Which enrichment did it give?
Answer: 0.462 log2 (difference from the parental peptide)

Question: Which enrichment does the source give for chain 1 D4H here?
Answer: -5.76 log2 (difference from the parental peptide)

Question: For chain 1 F15I, which enrichment is on record?
Answer: 0.05 log2 (difference from the parental peptide)

Question: With chain 1 Y14I as the variant, how does the enrichment read?
Answer: -2.68 log2 (difference from the parental peptide)

Question: How did the enrichment turn out when chain 1 C13G was run?
Answer: -8.69 log2 (difference from the parental peptide)

Question: How did the enrichment turn out when chain 1 Y5P was run?
Answer: -7.31 log2 (difference from the parental peptide)

Question: With chain 1 Y8S as the variant, how does the enrichment read?
Answer: -6.51 log2 (difference from the parental peptide)

Question: chain 1 C13I was tested. Which enrichment did it give?
Answer: -6.17 log2 (difference from the parental peptide)

Question: For chain 1 Y14L, which enrichment is on record?
Answer: -3.46 log2 (difference from the parental peptide)

Question: chain 1 Y14M was tested. Which enrichment did it give?
Answer: -2.62 log2 (difference from the parental peptide)

Question: With chain 1 C13E as the variant, how does the enrichment read?
Answer: -8.19 log2 (difference from the parental peptide)

Question: For chain 1 T6S, which enrichment is on record?
Answer: 2.88 log2 (difference from the parental peptide)

Question: Which enrichment does the source give for chain 1 E1Q here?
Answer: -0.591 log2 (difference from the parental peptide)

Question: How did the enrichment turn out when chain 1 L11G was run?
Answer: -5.15 log2 (difference from the parental peptide)

Question: Which enrichment does the source give for chain 1 D3R here?
Answer: -4.57 log2 (difference from the parental peptide)

Question: With chain 1 C13L as the variant, how does the enrichment read?
Answer: -6.8 log2 (difference from the parental peptide)

Question: chain 1 D3V was tested. Which enrichment did it give?
Answer: -3.65 log2 (difference from the parental peptide)

Question: How did the enrichment turn out when chain 1 L11W was run?
Answer: -0.874 log2 (difference from the parental peptide)

Question: chain 1 A7I was tested. Which enrichment did it give?
Answer: -0.213 log2 (difference from the parental peptide)

Question: For chain 1 T12L, which enrichment is on record?
Answer: -0.794 log2 (difference from the parental peptide)

Question: For chain 1 E1M, which enrichment is on record?
Answer: -0.0601 log2 (difference from the parental peptide)

Question: chain 1 C13N was tested. Which enrichment did it give?
Answer: -8.78 log2 (difference from the parental peptide)

Question: chain 1 T16P was tested. Which enrichment did it give?
Answer: 1.77 log2 (difference from the parental peptide)

Question: Which enrichment does the source give for chain 1 T6H here?
Answer: -0.677 log2 (difference from the parental peptide)

Question: For chain 1 L11K, which enrichment is on record?
Answer: -0.948 log2 (difference from the parental peptide)

Question: chain 1 P10E was tested. Which enrichment did it give?
Answer: -7.48 log2 (difference from the parental peptide)

Question: Which enrichment does the source give for chain 1 T16S here?
Answer: 1.18 log2 (difference from the parental peptide)
